Results published in PMC5843284.

Columns and labels:
[1] = target: HIV-1 group M capsid (HIV-1 group M)
[2] = target: HIV-1 group M capsid (HIV-1 group M); remark: listed apart in the source

marmoset TRIM-RanCyp
fold restriction of single-cycle HIV-1 infection in CRFK cells stably expressing the TRIM fusion, against the negative control [1]: 100 fold

gorilla TRIM-RanCyp
fold restriction of single-cycle HIV-1 infection in CRFK cells stably expressing the TRIM fusion, against the negative control [1]: 2 fold

red-capped mangabey TRIM-RanCyp
fold restriction of single-cycle HIV-1 infection in CRFK cells stably expressing the TRIM fusion, against the negative control [1]: 100 fold

gorilla TRIM-RanCyp with the human residue 75G
fold change of restriction of single-cycle HIV-1 infection in CRFK cells stably expressing the TRIM fusion, against gorilla TRIM-RanCyp [2]: 35 fold

titi monkey TRIM-RanCyp
fold restriction of single-cycle HIV-1 infection in CRFK cells stably expressing the TRIM fusion, against the negative control [1]: 100 fold

human TRIM-RanCyp with the gorilla residue 75R
fold decrease in fold change of restriction of single-cycle HIV-1 infection in CRFK cells stably expressing the TRIM fusion, against human TRIM-RanCyp [2]: 70 fold

orangutan TRIM-RanCyp
fold restriction of single-cycle HIV-1 infection in CRFK cells stably expressing the TRIM fusion, against the negative control [1]: 100 fold

chimpanzee TRIM-RanCyp
fold restriction of single-cycle HIV-1 infection in CRFK cells stably expressing the TRIM fusion, against the negative control [1]: 100 fold
